In patent US20190177434A1 one finds Ka data, which are given here for 5 molecules.

B1: IgG-Fc-15 (VHH)
VHH: QVQLQESGGGLVQAGGSLRLSCAVSGRGFSTYAMGWFRQAPGKEREFVGSANWKSGSIYVADSVKGRFTISNDNAQNTVYLQMSSLKPEDTAVYYCVARSFGTGQWDYWGQGTQVTVSS
B2: IgG-Fc-14 (VHH)
VHH: QVQLQESGGGLVQTGGSLRLSCSASGGTFETYAMGWFRQAPGKEREFVGSTNWKSERTYVADSVKGRFTISRDNGQYTAYLQMTSLKPEDTAVYFCVARSFGTGQWDYWGQGTQVTVSS
B3: IgG-Fc-13 (VHH)
VHH: QVQLQESGGGLVQAGGSLRLSCAASGDTFSTYAMGWFRQAPGKEREFVGRIVRGTESTYLIDSVKGRFAISRDNAQNTVYLQMTSLKPEDTAVYFCVARSFGAGQWDYWGQGTQVTVSS
B4: IgG-Fc-11 (VHH)
VHH: QVQLQESGGGLVQAGGSLRLSCAVSGRTFSTYAMGWFRQAPGKEREFVGSANWKSGSTYLVDSVKGRFTISGDNAHDTVHLQMTSLKPEDTGVYFCVARSFGTGQWDYWGQGTQVTVSS
B5: IgG-Fc-12 (VHH)
VHH: QVQLQESGGGLVQAGGSLRLSCAVSGRTFSTYAMGWFRQAPGKEREFVGSINFKSGSIYLADSVKGRFTISGDNAQNTAYLQMTSLKPEDTAVYLCVARSFGTGQWDYWGQGTQVTVSS

In the test the target is Human IgG, Fc fragment (human). The experiment in a line: method not given.
Turning to B1, the Ka is more than 4e+09 M⁻¹.

B2 had a Ka of more than 4e+09 M⁻¹.

As for B3, the Ka is more than 4e+09 M⁻¹.

B4 showed a Ka of more than 4e+09 M⁻¹.

B5 displayed a Ka of more than 4e+09 M⁻¹.
